From publication PMC12915131, “Balanced Expression of the Diiron Oxygenase BioE Is Essential for Biotin Homeostasis in Elizabethkingia meningoseptica”

B1: PbioE probe (dsDNA)
DNA 1: TTTTAAATCTGGTACCATTTAAGGTCCGGCAAGATAATAATTTTGCTTCAAAAAAGAG
DNA 2: CTCTTTTTTGAAGCAAAATTATTATCTTGCCGGACCTTAAATGGTACCAGATTTAAAA
B2: PbioB probe (dsDNA)
DNA 1: TGCTTTTATCAAACTCATGTGTAATTACTCTGGTAATCTATATGATTAAGATTTAGAAG
DNA 2: CTTCTAAATCTTAATCATATAGATTACCAGAGTAATTACACATGAGTTTGATAAAAGCA

Target: BioL (EmBioL), MocR-family repressor (Elizabethkingia meningoseptica, UniProt A0A1T3FDC7 1-495)
Experiment: EMSA; PLP in protein elution buffer; 5 mM Mg2+; EMSA: 20 mM Tris-HCl pH 8.0, 50 mM KCl, 5 mM MgCl2, 1 mM DTT, 5% glycerol, room temperature 20 min; 5% native PAGE, GelRed stain
Settings: protein: recombinant; tags: tag-free after Ulp1 cleavage of GST-SUMO; chain copies: 2; blunt

Row | Binder | binding result
1 | B1 | binds
2 | B2 | binds
